Laboratory results taken from paper PMC3970815 (Biochemistry, 2014).
Ends that are not written are not given here. fluorescein = fluorescein label, on the N-terminus

Target: T1, fluorescein-labeled consensus propeptide (FpCon)
T1 peptide: fluorescein-AVFLSREQANQVLQRRRR
Experiment: fluorescence polarisation

B1: Wild-type human gamma-glutamyl carboxylase (GGCX) with a carboxyl-terminal 12-amino acid epitope tag, embedded in DOPC/MSP1D1 nanodiscs (enzyme, UniProt P38435 1-758, looked up)
chain: MAVSAGSARTSPSSDKVQKDKAELISGPRQDSRIGKLLGFEWTDLSSWRRLVTLLNRPTDPASLAVFRFLFGFLMVLDIPQERGLSSLDRKYLDGLDVCRFPLLDALRPLPLDWMYLVYTIMFLGALGMMLGLCYRISCVLFLLPYWYVFLLDKTSWNNHSYLYGLLAFQLTFMDANHYWSVDGLLNAHRRNAHVPLWNYAVLRGQIFIVYFIAGVKKLDADWVEGYSMEYLSRHWLFSPFKLLLSEELTSLLVVHWGGLLLDLSAGFLLFFDVSRSIGLFFVSYFHCMNSQLFSIGMFSYVMLASSPLFCSPEWPRKLVSYCPRRLQQLLPLKAAPQPSVSCVYKRSRGKSGQKPGLRHQLGAAFTLLYLLEQLFLPYSHFLTQGYNNWTNGLYGYSWDMMVHSRSHQHVKITYRDGRTGELGYLNPGVFTQSRRWKDHADMLKQYATCLSRLLPKYNVTEPQIYFDIWVSINDRFQQRIFDPRVDIVQAAWSPFQRTSWVQPLLMDLSPWRAKLQEIKSSLDNHTEVVFIADFPGLHLENFVSEDLGNTSIQLLQGEVTVELVAEQKNQTLREGEKMQLPAGEYHKVYTTSPSPSCYMYVYVNTTELALEQDLAYLQELKEKVENGSETGPLPPELQPLLEGEVKGGPEPTPLVQTFLRRQQRLQEIERRRNTPFHERFFRFLLRKLYVFRRSFLMTCISLRNLILGRPSLEQLAQEVTYANLRPFEAVGELNPSNTDSSHSNPPESNPDPVHSEF
modifications: glycoprotein (glycosylation sites shown in Figure 3); disulfide bond between cysteine 99 and cysteine 450
stoichiometry N: 1 propeptide per GGCX-nanodisc
